# Results as given in PMC5090064, “Coordinated regulation of the ESCRT-III component CHMP4C by the chromosomal passenger complex and centralspindlin during cytokinesis” (Open Biology, 2016).
# Columns and labels:
# MKLP1 = MKLP1 (UniProt Q02241); experiment: GFP-Trap pull-down, Flag western blot
# [1] = biological target: T1, CPC mini-complex (Survivin full-length, Borealin full-length and INCENP 1–57) (UniProt Q53HL2 1-280; O15392 1-142; Q9NQS7 1-57); experiment: atomic force microscopy; purified proteins on mica surfaces without lipid bilayers, imaged under fluid at room temperature; conditions: both partners purified
# T1 construct: Borealin, full-length, TEV-cleavable His-tagged, pETM vector; Survivin, full-length, 3C-cleavable GFP-tagged, pRSET vector; INCENP residues 1–57 (methods; the results say the first 58 amino acids), untagged, pMCNcs vector; Results call the INCENP piece INCENP 1–58, methods 1–57; also called mini-CPC; copies: + +
# T1 sequence (Q53HL2 whole entry, chain 1 of 3, the tested form may be a part): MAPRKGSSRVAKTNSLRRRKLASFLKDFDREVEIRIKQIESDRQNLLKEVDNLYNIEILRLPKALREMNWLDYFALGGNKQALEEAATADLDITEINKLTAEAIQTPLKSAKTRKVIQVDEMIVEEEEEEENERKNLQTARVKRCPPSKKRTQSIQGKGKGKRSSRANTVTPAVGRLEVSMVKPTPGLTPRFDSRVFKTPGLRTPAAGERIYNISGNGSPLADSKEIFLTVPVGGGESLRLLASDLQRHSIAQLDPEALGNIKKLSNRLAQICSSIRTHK
# T1 sequence (O15392 whole entry, chain 2 of 3, the tested form may be a part): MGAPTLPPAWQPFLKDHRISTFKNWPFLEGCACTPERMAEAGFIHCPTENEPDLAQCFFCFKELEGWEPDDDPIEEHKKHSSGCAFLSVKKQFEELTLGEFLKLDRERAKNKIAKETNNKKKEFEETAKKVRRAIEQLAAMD
# T1 sequence (Q9NQS7 1-57, chain 3 of 3): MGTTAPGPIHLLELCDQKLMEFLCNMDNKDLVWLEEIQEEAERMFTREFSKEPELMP
Molecule,"binding against the reference (MKLP1; reference: S210A, sites S214,S215)","binding against the reference (MKLP1; reference: wild type, sites S210,S214,S215)",binding result [1]
"CHMP4C (from UniProt Q96CF2) StripleA (S210A, S214A, S215A)",stronger,stronger,
"CHMP4C (purified recombinant, full-length) (natural protein, human, UniProt Q96CF2 1-233, looked up, CHMP4C, human, full-length ORF cloned into pET-His6-msfGFP as a TEV-cleavable His-tagged protein; also called His6-GFP::CHMP4C; purified CHMP4C; source: E. coli BL21 Gold, purified (Ni-NTA, TEV cleavage, Superdex 200); not shown: His6, N-terminal, cleaved) MSKLGKFFKGGGSSKSRAAPSPQEALVRLRETEEMLGKKQEYLENRIQREIALAKKHGTQNKRAALQALKRKKRFEKQLTQIDGTLSTIEFQREALENSHTNTEVLRNMGFAAKAMKSVHENMDLNKIDDLMQEITEQQDIAQEISEAFSQRVGFGDDFDEDELMAELEELEQEELNKKMTNIRLPNVPSSSLPAQPNRKPGMSSTARRSRAASSQRAEEEDDDIKQLAAWAT",,,binds
